The assay addresses T1, BSA (Bos taurus, UniProt P02769).
T1 construct: BSA (serum albumin), used as negative control protein; also called control protein
In words: SPR; scFv-Cys3 (50 µg/mL) immobilised directly on a gold chip by thiol-gold, blocked with PEG-thiol; OjaMT (5-30 µg/mL) or BSA (30 µg/mL) flowed at 10 µL/min for 10 min, PBS wash; PBS, room temperature; portable MiCo SPR nano. The following applies: both partners purified. (SPR reads the build-up and loss of mass on a sensor chip optically.)

T1 sequence (P02769 25-607): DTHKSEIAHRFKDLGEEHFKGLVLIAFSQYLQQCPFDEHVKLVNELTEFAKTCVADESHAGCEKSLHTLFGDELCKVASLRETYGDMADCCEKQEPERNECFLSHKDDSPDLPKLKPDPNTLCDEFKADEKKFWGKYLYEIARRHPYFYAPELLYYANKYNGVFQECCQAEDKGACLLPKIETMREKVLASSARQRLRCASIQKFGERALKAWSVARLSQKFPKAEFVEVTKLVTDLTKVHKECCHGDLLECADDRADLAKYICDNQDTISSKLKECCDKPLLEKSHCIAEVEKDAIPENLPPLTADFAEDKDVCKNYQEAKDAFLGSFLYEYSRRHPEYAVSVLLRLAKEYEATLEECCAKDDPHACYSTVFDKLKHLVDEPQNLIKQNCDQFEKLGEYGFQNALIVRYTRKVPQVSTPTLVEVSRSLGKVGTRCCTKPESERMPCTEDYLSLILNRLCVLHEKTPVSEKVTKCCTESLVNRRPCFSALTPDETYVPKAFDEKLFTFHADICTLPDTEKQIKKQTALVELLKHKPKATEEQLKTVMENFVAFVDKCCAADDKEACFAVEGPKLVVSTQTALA

B1: Cys3-tagged anti-OjaMT single-chain fragment of variable region (scFv-Cys3) (scFv, V domains shown)
VH: EVQLQQSGAELVKPGASVKLSCKASGYTFTSYSMHWVKQRPGQGLEWIGEINPSNGRTNYNEKFKSKATLTVDKSSSTAYMQVSSLTSEDSAVYYCARRSSYWYFDVWGAGTTVTVSS
VL: DVLMTQTPASQSASLGESVTITCLASQTIGTWLAWYQQKPGKSPQLLIYAATSLADGVPSRFSGSGSGTKFSFKISSLQAEDFVSYYCQQLCNPPYTFGGRHQAGNQ
notes: VH of the anti-OjaMT hybridoma, 119 amino acids; (GGGGS)3 GS-linker, 15 amino acids; VL of the anti-OjaMT hybridoma, 107 amino acids; VH-linker-VL cloned NdeI/HindIII in pET-28a(+) (pJDH033); a GS-linker-Cys3 fragment was put into the HindIII/XhoI sites (pJDH043); also called anti-OjaMT scFv; recombinant scFv; not shown: GS-linker-Cys3, C-terminal, kept
As to B1, the binding result was “no binding (tested: 30 μg/mL)”.

The record behind these values is PMC5948571, “Detection of Metallothionein in Javanese Medaka (Oryzias javanicus), Using a scFv-Immobilized Protein Chip” (Sensors (Basel, Switzerland), 2018).
